Measurements from IntAct's records for PubMed 36233334.

B1: Cilia- and flagella-associated protein 418 (Homo sapiens), Q96NL8 (parent)
chain: MAEDLDELLDEVESKFCTPDLLRRGMVEQPKGCGGGTHSSDRNQAKAKETLRSTETFKKEDDLDSLINEILEEPNLDKKPSKLKSKSSGNTSVRASIEGLGKSCSPVYLGGSSIPCGIGTNISWRACDHLRCIACDFLVVSYDDYMWDKSCDYLFFRNNMPEFHKLKAKLIKKKGTRAYACQCSWRTIEEVTDLQTDHQLRWVCGKH
partner: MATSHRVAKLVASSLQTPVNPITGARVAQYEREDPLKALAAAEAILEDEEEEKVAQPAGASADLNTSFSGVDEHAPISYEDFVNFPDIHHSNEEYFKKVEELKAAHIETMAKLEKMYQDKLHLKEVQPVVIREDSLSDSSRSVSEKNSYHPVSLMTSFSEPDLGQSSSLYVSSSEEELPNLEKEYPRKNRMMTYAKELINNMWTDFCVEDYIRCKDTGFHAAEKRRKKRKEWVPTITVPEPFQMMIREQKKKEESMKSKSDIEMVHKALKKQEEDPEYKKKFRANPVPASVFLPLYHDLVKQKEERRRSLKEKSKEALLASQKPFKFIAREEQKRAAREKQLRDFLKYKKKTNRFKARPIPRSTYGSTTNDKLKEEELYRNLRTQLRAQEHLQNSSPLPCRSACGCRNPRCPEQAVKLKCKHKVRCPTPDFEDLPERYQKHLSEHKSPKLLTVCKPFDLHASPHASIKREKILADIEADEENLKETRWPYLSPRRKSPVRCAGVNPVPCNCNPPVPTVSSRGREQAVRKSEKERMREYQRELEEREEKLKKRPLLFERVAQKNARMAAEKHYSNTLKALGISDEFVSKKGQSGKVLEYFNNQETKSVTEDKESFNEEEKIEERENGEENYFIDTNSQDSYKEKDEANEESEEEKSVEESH

Variants of: B1
Details: with FAM161A

Row | Variant | effect of a mutation on the interaction
1 | R177W | with no effect
2 | Q182R | with no effect
